From US20140099280A1 come the findings set out here.

The labels stand for the following.
T1: truncated human IL-33 (IL-33aa112-270)
T1 chain: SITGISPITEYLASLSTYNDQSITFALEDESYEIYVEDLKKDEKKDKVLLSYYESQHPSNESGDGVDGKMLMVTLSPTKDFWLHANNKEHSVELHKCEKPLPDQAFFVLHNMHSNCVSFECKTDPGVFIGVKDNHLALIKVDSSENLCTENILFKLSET

T2: whole human interleukin 33 (IL-33aa1-270)
T2 chain: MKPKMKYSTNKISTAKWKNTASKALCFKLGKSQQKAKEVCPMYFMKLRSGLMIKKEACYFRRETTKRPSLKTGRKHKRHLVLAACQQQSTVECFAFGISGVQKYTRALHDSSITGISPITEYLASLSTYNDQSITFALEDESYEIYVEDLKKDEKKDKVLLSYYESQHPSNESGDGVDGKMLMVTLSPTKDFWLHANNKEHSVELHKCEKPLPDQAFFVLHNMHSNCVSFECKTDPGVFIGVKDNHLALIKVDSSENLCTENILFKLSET

B1: neutrophil elastase 2 (protein)
chain: IVGGRRARPHAWPFMVSLQLRGGHFCGATLIAPNFVMSAAHCVANVNVRAVRVVLGAHNLSRREPTRQVFAVQRIFENGYDPVNLLNDIVILQLNGSATINANVQVAQLPAQGRRLGNGVQCLAMGWGLLGRNRGIASVLQELNVTVVTSLCRRSNVCTLVRGRQAGVCFGDSGSPLVCNGLIHGIASFVRGGCASGLYPDAFAPVAQFVNWIDSIIQ
B2: leukocyte proteinase 3 (protein)
chain: IVGGHEAQPHSRPYMASLQMRGNPGSHFCGGTLIHPSFVLTAAHCLRDIPQRLVNVVLGAHNVRTQEPTQQHFSVAQVFLNNYDAENKLNDVLLIQLSSPANLSASVATVQLPQQDQPVPHGTQCLAMGWGRVGAHDPPAQVLQELNVTVVTFFCRPHNICTFVPRRKAGICFGDSGGPLICDGIIQGIDSFVIWGCATRLFPDFFTRVALYVDWIRSTLR
B3: human cathepsin G (protein)
chain: IIGGRESRPHSRPYMAYLQIQSPAGQSRCGGFLVREDFVLTAAHCWGSNINVTLGAHNIQRRENTQQHITARRAIRHPQYNQRTIQNDIMLLQLSRRVRRNRNVNPVALPRAQEGLRPGTLCTVAGWGRVSMRRGTDTLREVQLRVQRDRQCLRIFGSYDPRRQICVGDRRERKAAFKGDSGGPLLCNNVAHGIVSYGKSSGVPPEVFTRVSSFLPWIRTTMRS

In the first data set the target is ST2 receptor on murine MC/9 mast cells (murine (MC/9 mast cell line)) (UniProt P14719). The data set can be described thus: cell-based or functional assay.
UniProt P14719, sequence (P14719 27-567): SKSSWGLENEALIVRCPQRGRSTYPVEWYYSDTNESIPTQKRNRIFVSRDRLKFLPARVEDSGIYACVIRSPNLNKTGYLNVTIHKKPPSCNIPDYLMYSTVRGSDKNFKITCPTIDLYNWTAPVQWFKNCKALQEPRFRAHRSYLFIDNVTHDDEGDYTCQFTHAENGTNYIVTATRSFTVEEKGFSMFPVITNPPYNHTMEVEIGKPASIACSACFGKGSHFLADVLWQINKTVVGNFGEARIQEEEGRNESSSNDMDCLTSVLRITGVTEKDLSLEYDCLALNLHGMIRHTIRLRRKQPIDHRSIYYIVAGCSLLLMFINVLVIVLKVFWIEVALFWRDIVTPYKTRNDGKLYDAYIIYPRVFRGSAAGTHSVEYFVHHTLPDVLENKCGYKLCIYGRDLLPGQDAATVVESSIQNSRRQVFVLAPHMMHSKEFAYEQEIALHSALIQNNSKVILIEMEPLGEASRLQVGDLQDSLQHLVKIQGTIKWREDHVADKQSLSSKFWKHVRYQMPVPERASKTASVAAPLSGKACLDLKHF
Take “IL-33aa99-270 (from UniProt O95760 99-270) (ligand)”: the secretion of IL-6 by MC/9 mast cells (ELISA), relative to whole IL-33 (fold vs whole IL-33) stood at 4.
On the same count and under the same terms, then “IL-33aa95-270 (from UniProt O95760 95-270) (ligand)”, with 4; and “IL-33aa109-270 (from UniProt O95760 109-270) (ligand)”, with 4.

The next data set addresses T1, truncated human IL-33 (IL-33aa112-270).
Experiment: not given
B1: the “cleavage in vitro, western blot” value is reported as “the truncated form IL-33aa112-270, which remains intact in the presence of these proteases”.
Consider B2, for which the “cleavage in vitro, western blot” value is reported as “the truncated form IL-33aa112-270, which remains intact in the presence of these proteases”.
B3: the “cleavage in vitro, western blot” value is recorded as “the truncated form IL-33aa112-270, which remains intact in the presence of these proteases”.

A further data set addresses T2, whole human interleukin 33 ….
Experiment: not given
As for B1, the “cleavage in vitro, SDS-PAGE and western blot” value is “Human IL-33 is the target of the recombinant proteases Cathepsin G (Cat G), Elastase 2 (Elastase), and Proteinase 3 (PR3), which generate, in vitro, the three mature fragments IL-33aa95-270, IL-33aa99-270 and IL-33aa109-270”.
As for B2, the “cleavage in vitro, SDS-PAGE and western blot” value was “Human IL-33 is the target of the recombinant proteases Cathepsin G (Cat G), Elastase 2 (Elastase), and Proteinase 3 (PR3), which generate, in vitro, the three mature fragments IL-33aa95-270, IL-33aa99-270 and IL-33aa109-270”.
The same measure, in the same setting: under B3 stands “Human IL-33 is the target of the recombinant proteases Cathepsin G (Cat G), Elastase 2 (Elastase), and Proteinase 3 (PR3), which generate, in vitro, the three mature fragments IL-33aa95-270, IL-33aa99-270 and IL-33aa109-270”.
